In article PMC11890025 one finds Kd data, which are given here for two substances.

This data set has as its system SaAREB6-His (Santalum album). The data set is described as follows: MST. The note with it: MST: 20 nM labelled SaAREB6, 150 mM NaCl, 20 mM Tris-HCl pH 8.0, 25 C; EMSA: LightShift Chemiluminescent kit, buffer not stated. (A gel shift assay detects complexes by their altered migration in electrophoresis.)

The Kd is the constant that tells how readily two partners part at equilibrium. Turning to SaCYP736A167 promoter R1 (MST), the Kd worked out at 4.81 µM.
The same measure for SaCYP736A167 promoter R2 (MST): 24.8 µM.
